Test results from PMC10022624, “A mini-TGA protein modulates gene expression through heterogeneous association with transcription factors” (Plant Physiology, 2022).

B1: His6-tagged StTGA2.1, recombinant (natural protein, potato (Solanum tuberosum), UniProt A0A9F1U434 1-270, looked up)
chain: MDAMGDREGPRLVSSTALWRGDRRPAQVVQVSQLEQDFQRAPQQRESGSLPFDTEYSRWLEEHTKHINELRTAVNSHASDPELRSMVDSVIAHYDEVYRMKANAAKGNVEHLLSGMWKTPAERCSMWIGDFRPSLLLKLLVNQVEPLTEQQLIGIVNLQQSSQQAEDALSQDMEAWQQSLEVTLAYGSLATEGSSGDAAYNISQMAMAMGILGTLEGFLRQADNLRQQTLQQMHRMLTTRQSARALLAISEYFSRLRALSSLWLARPREQ
notes: StTGA2.1, potato (Solanum tuberosum) cultivar Rywal; full-length cds in pMCSG7; C-terminal region printed as aa 47-240; Dimer by SEC elution volume; The tag is removable by TEV protease; not shown: His6, N-terminal, kept
B2: PRX07p_2 (dsDNA)
DNA 1: GTTACTACTCGAGCGTTAGGGGTGACGTTTCCAAT
DNA 2: ATTGGAAACGTCACCCCTAA
B3: PRX07p_1 (dsDNA)
DNA 1: GTTACTACTCGAGCGTGTGCCCAACGTCACAATCC
DNA 2: GGATTGTGACGTTGGGCACA
B4: PRX15p_1 (dsDNA)
DNA 1: GTTACTACTCGAGCGTTTAATAATGATGACATTTG
DNA 2: CAAATGTCATCATTATTAAA
B5: PRX46p (dsDNA)
DNA 1: GTTACTACTCGAGCGTGAACCTGAGGTCAACCGTT
DNA 2: AACGGTTGACCTCAGGTTCA

Assays:
[1] = molecular target: HA-tagged StTGA2.3, expressed in N. benthamiana (potato (Solanum tuberosum))
[2] = molecular target: the molecule itself; assay: SEC; His6-tagged StTGA2.1; oligomeric state from elution volume against the Gel Filtration LMW calibration kit; 30 mM Tris pH 7.5, 400 mM NaCl
StTGA2.3 [3] = molecular target: T1, StTGA2.3 (Solanum tuberosum cv. Rywal, UniProt A0A9F1U446 1-327); assay: SPR; 1 mM Mg2+; dose-dependent response; SPR Biacore T200, 25 C, 25 mM Tris pH 7.4, 140 mM NaCl (180 mM for StTGA2.1 alone), 1 mM MgCl2, 0.005% P20; conditions: protein: ivt; tags: C-terminal GS peptide; chain copies: 2; 5' overhang 15 nt on strand 1
T1 sequence: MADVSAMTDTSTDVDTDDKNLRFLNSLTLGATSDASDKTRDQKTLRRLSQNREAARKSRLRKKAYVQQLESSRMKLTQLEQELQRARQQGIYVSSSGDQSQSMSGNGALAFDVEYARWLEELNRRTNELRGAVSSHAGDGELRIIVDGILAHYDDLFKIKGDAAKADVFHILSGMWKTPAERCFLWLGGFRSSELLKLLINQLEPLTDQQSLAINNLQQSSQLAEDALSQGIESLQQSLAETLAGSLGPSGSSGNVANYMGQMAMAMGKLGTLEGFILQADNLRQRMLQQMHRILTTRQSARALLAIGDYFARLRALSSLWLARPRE

[4] = molecular target: T2, StTGA2.3;StTGA2.1 (mini-TGA) (Solanum tuberosum cv. Rywal;Solanum …, UniProt A0A9F1U446;A0A9F1U434 1-327;1-270, |); assay: SPR; premixed with 300 nM StTGA2.1; higher response than StTGA2.3 alone; SPR Biacore T200, 25 C, 25 mM Tris pH 7.4, 140 mM NaCl (180 mM for StTGA2.1 alone), 1 mM MgCl2, 0.005% P20; conditions: protein: ivt;recombinant; tags: C-terminal GS peptide;N-terminal His6; copies: 1;1; 5' overhang 15 nt on strand 1
T2 sequence 1: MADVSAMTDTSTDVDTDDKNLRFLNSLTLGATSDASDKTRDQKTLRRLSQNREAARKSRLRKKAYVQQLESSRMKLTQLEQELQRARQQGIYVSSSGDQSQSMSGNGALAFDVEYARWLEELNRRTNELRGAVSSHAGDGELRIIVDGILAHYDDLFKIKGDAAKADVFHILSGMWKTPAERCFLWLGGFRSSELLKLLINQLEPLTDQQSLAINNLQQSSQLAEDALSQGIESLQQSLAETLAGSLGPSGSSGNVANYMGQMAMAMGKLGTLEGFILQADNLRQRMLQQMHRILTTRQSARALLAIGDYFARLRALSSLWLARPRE
T2 sequence 2: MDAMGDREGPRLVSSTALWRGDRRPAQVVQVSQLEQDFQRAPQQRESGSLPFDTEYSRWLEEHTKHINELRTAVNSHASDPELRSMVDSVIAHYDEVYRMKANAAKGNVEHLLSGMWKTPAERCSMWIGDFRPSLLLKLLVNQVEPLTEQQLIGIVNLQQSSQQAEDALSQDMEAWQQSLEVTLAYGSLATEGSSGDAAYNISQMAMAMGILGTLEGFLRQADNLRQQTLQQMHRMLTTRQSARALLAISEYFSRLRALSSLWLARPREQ

StTGA2.1 (mini-TGA) = molecular target: T3, StTGA2.1 (mini-TGA) (Solanum tuberosum cv. Rywal, UniProt A0A9F1U434 1-270); assay: SPR; 18.75-300 nM protein; 180 mM NaCl; 1 mM Mg2+; SPR Biacore T200, 25 C, 25 mM Tris pH 7.4, 140 mM NaCl (180 mM for StTGA2.1 alone), 1 mM MgCl2, 0.005% P20; conditions: protein: recombinant; tags: N-terminal His6; chain copies: 2; 5' overhang 15 nt on strand 1
T3 sequence: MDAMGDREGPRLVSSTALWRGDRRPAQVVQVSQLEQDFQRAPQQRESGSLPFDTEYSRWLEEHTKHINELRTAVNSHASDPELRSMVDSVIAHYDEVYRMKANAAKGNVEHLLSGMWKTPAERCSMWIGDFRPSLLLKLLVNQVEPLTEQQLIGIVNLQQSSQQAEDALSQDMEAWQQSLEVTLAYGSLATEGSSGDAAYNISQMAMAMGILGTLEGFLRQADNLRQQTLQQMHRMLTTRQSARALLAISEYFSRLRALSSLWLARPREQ

StTGA2.3 [5] = molecular target: T1, StTGA2.3; assay: SPR; 1 mM Mg2+; interaction negligible; SPR Biacore T200, 25 C, 25 mM Tris pH 7.4, 140 mM NaCl (180 mM for StTGA2.1 alone), 1 mM MgCl2, 0.005% P20; conditions: protein: ivt; tags: C-terminal GS peptide; chain copies: 2; 5' overhang 15 nt on strand 1

| Molecule | binding result (StTGA2.3 [3]) | binding result [4] | binding result (StTGA2.1 (mini-TGA)) | binding result (StTGA2.3 [5]) | also measured |
| --- | --- | --- | --- | --- | --- |
| StTGA2.1, GFP- or HA-tagged, expressed in N. benthamiana (natural protein) | – | – | – | – | StPRX07::LucF promoter activity (luciferase transactivation assay) in N. benthamiana leaves coexpressing GFP-tagged StTGA2.1 and BFP-tagged StTGA2.3, compared to control [1]: > 2 fold |
| B1 | – | – | – | – | stoichiometry N [2]: 2 |
| B2 | binds | binds | no binding | – | – |
| B3 | binds | binds | no binding | – | – |
| B4 | – | – | no binding | no binding | – |
| B5 | – | – | no binding | no binding | – |
